Results reported in publication doi:10.1101/2020.09.01.278291 (bioRxiv, 2020).

Molecular target: LRH-1 ligand binding domain (LBD), residues 299-541, His tag cleaved (human, UniProt O00482 299-541)
Assay: crystal structure

LRH-1 ligand binding domain (LBD), residues 299-541, His tag cleaved, sequence (O00482 299-541): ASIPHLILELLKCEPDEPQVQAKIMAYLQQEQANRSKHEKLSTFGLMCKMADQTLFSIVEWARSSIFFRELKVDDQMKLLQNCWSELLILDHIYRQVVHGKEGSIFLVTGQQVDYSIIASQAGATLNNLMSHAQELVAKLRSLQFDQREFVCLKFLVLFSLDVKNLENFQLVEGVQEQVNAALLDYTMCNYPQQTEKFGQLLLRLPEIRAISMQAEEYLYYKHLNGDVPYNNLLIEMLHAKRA

**Q.** Does KENALLRYLLDK [Tif2 peptide (transcriptional intermediary factor 2 coregulator peptide)] bind?
**A.** binds
